The text below walks through data of US9624471B2, “Methods for maturing cardiomyocytes and uses thereof” (UNIVERSITY OF WASHINGTON THROUGH ITS CENTER FOR …, priority 2013, dated 2017).

Data set [1] relates to RUES2-CMs. The data set can be described thus: mRNA and miRNA qPCR analysis in transduced RUES2-CMs. The conditions noted are these: Lin28a OE hESC-CMs. In kind it is cell-based, human. As to the method: Undifferentiated human embryonic stem cell (hESCs) lines H7 (NIHhESCC-10-0061) and RUES2 (NIHhESC-09-0013) were expanded using mouse embryonic fibroblast-conditioned medium with 5 ng/ml basic fibroblast growth factor. H7-CMs were derived using previously reported protocols^1-3. RUES2-CMs were used for all functional analyses and these were derived using a cardiac progenitor cell differentiation protocol^4 derived from previously reported monolayer directed differentiation methods^1, 5, 6. In brief, this involves the induction of a monolayer of hESCs with activin A and bone morphogenetic protein-4 (BMP4) under serum- and insulin-free conditions. During the early stages of differentiation, the cells were also exposed to the Wnt agonist CHIR 99021 followed by the Wnt antagonist Xav939. From 7 days of in vitro differentiation, the cells were fed every alternate day with serum-free RPMI-B27 plus insulin media. After 20 days of in vitro differentiation, the cells were trypsinized and replated. Only those cell preparations that had at least 70% cardiac troponin T-positive CMs (as observed by flow cytometry) were used for further experiments. For experiments where the H7-CMs were cultured for around a year, the cells were replated after the 3rd and 11th month from day 0. […] The samples were analyzed at day 30 from the initiation of differentiation. […]

For data set [2], the system named is RUES2-CMs. The data set can be described thus: Immunocytochemistry (α-actinin staining) and morphological analysis of lentivirally transduced cardiomyocytes. The format is cell-based, human. The conditions noted are these: Lin28a OE CMs compared to EV control. As to the method: Undifferentiated human embryonic stem cell (hESCs) lines H7 (NIHhESCC-10-0061) and RUES2 (NIHhESC-09-0013) were expanded using mouse embryonic fibroblast-conditioned medium with 5 ng/ml basic fibroblast growth factor. H7-CMs were derived using previously reported protocols^1-3. RUES2-CMs were used for all functional analyses and these were derived using a cardiac progenitor cell differentiation protocol^4 derived from previously reported monolayer directed differentiation methods^1, 5, 6. In brief, this involves the induction of a monolayer of hESCs with activin A and bone morphogenetic protein-4 (BMP4) under serum- and insulin-free conditions. During the early stages of differentiation, the cells were also exposed to the Wnt agonist CHIR 99021 followed by the Wnt antagonist Xav939. From 7 days of in vitro differentiation, the cells were fed every alternate day with serum-free RPMI-B27 plus insulin media. After 20 days of in vitro differentiation, the cells were trypsinized and replated. Only those cell preparations that had at least 70% cardiac troponin T-positive CMs (as observed by flow cytometry) were used for further experiments. For experiments where the H7-CMs were cultured for around a year, the cells were replated after the 3rd and 11th month from day 0. At the 11th month, FACS analysis for cTnT was conducted and the CMs were split into three parts and were cultured as three independent replicates for another 1.5 months after which they were harvested for RNA extraction. IMR90iPSC-CMs cultured for 1 yr were replated at day 20 and split every 2 months for 12 months before harvesting for RNA extraction. To generate engineered cardiac tissue, the inventors used the procedure reported by Tulloch et al.^2 In brief, day 20 CMs are suspended in the collagen gel at 10,000/μl, and rod-shaped constructs of 25 μl (1 mm radius×8 mm length) were generated by casting in a preformed mold and warming to 37° C. The ends of the mold contain Velcro-like micro-fiber loops, and these become impregnated with gel+cell mixture. These tabs allow the constructs to be maintained under static tension, which facilitates alignment and differentiation of the CMs. The constructs were maintained in the serum-free RPMI-B27 plus glutamine media up to 2 weeks. For let-7 overexpression analysis, the CMs were transduced with the virus carrying the pLKO-let-7 or empty vector control pLKO plasmid at day 12 of the directed differentiation protocol. After overnight transduction the virus was removed, cells were rinsed with PBS and new media added. The samples were analyzed at day 30 from the initiation of differentiation.
All morphological analyses were carried out using at least 50 cells. Cells replated in chamber slides were fixed in 4% paraformaldehyde for 15 minutes followed by PBS wash. The fixed cells were blocked for an hour with 1.5% normal goat serum and incubated O/N with mouse alpha actinin (sigma) primary antibody. The primary antibody was rinsed with PBS and incubated with secondary antibody (Alexa fluor 488 [Goat anti mouse]) for an hour followed by nuclear staining using DAPI. For cell area and perimeter measurements, images were acquired and processed using ZEISS™ AXIO fluorescent microscope and AXIOVISION™ software. For sarcomere length, images were acquired and processed using LEICA™ TCS-SPE confocal microscope and LEICA™ software. These confocal images were used to select 1-2 myofibrils per cell with at least ten continuous, well-recognized alpha-actinin bands and divided the length value by the number of sarcomeres. The images were further analyzed using IMAGE J™ software.
For lenti-let-7 OE constructs, Pri-miR-let-7i and pri-miR-let-7g sequence was amplified from H7 genomic DNA using forward primer for let-7i-TCCGCGTGGTCCCGT; reverse primer for let-7i-ATTGTCCTCCGCGGCGC and forward primer for let-7g-AGAGTTCCTCCAGCGCTCC; reverse primer for let-7g-CCCCACTTGGCAGCTGGC, resulting in 153 bp and 154 bp products, respectively. […]

Another data set has as its system HECT293FT cells. As to the kind of experiment: Lipofectamine transient transfection of plko-let-7g and plko-let-7g-E plasmids, mature let-7g and target expression after 24 hrs. The format is cell-based. Conditions: 24 hrs after transfection. As to the method: FIGS. 20A-20B Modified let-7g (let-7g-E) is more efficient in generating mature let-7g in HECT293FT cells. Let-7g and a modified version of let-7g (plko-let-7g-E) were induced in hect 293 FT cells by introducing plko-let-7g and plko-let-7g-E plasmids with lipofectamine transient transfection assay. 24 hrs after transfection, cells were tested for mature let-7g expression. […] (FIG. 20B) Targets of let-7 are repressed when we over-express let-7g-E similar to that seen during over-expression of let-7g.

B1: Lin28a: Lin28a over-expressed in RUES2-CMs; LIN28 is the negative regulator of let-7 processing (protein, UniProt Q9H9Z2 2-209, looked up)
Protein lin-28 homolog A: GSVSNQQFAGGCAKAAEEAPEEAPEDAARAADEPQLLHGAGICKWFNVRMGFGFLSMTARAGVALDPPVDVFVHQSKLHMEGFRSLKEGEAVEFTFKKSAKGLESIRVTGPGGVFCIGSERRPKGKSMQKRRSKGDRCYNCGGLDHHAKECKLPPQPKKCHFCQSISHMVASCPLKAQQGPSAQGKPTYFREEEEEIHSPTLLPEAQN
For the molecule B1, the “let-7i and let-7g expression” value with RUES2-CMs [1] is given as “down-regulated”. Also, in the data set on RUES2-CMs [2], the cell area result is on record as “significant decrease”, the circularity index result was “increase” and the sarcomere length entry is listed as “significant decrease”. For the same molecule, the cell perimeter entry in the data set with RUES2-CMs [2] (N=50 cells per condition) is given as “significant decrease”.

B2: let-7g-E: modified hsa-let-7g with mutated GGAG LIN28 binding motif, SEQ ID NO: 12 (also SEQ ID NO: 16) (nucleic acid, listed as Homo sapiens)
chain: AGGCUGAGGUAGUAGUUUGUACAGUUUGAGGGUCUAUGAUACCACCCGGUACAUCAGAUAACUGUACAGGCCACUGCCUUGCCA
modifications: listed as RNA, chemistry not fully specified
B2: the “Targets of let-7 expression” value in the data set with HECT293FT cells was “repressed”. Moreover, in the data set with HECT293FT cells (compared to EV and native let-7g), the “mature let-7g expression” value was “much higher expression”.
